From article PMC3422223 (PLoS ONE, 2012)

Columns and labels:
CCL5 [1] = molecular target: T1, CCL5 (Homo sapiens, UniProt P13501, biotin (sulfo-NHS-LC-biotin) in the Biacore and streptavidin-plate ELISA experiments; not biotinylated where coated directly); assay: cell-based or functional assay
CCL3 [2] = molecular target: T2, CCL3 (Homo sapiens, UniProt P10147, biotin (sulfo-NHS-LC-biotin) in the Biacore and streptavidin-plate ELISA experiments; not biotinylated where coated directly); assay: cell-based or functional assay
CCL4 [3] = molecular target: T3, CCL4 (Homo sapiens, UniProt P13236, biotin (sulfo-NHS-LC-biotin) in the Biacore and streptavidin-plate ELISA experiments; not biotinylated where coated directly); assay: cell-based or functional assay
CCL5 [4] = molecular target: T1, CCL5; assay: SPR; Biacore 2000; biotinylated CCL3, CCL4, CCL5 immobilised on a streptavidin chip (~100 RU); Fabs flowed over at 500 pM to 1 µM; regeneration 10 mM glycine pH 1.5; triplicate; 1:1 Langmuir fit, murine and humanized 18V4F Fabs fit to a steady state model; details: both partners purified
CCL3 [5] = molecular target: T2, CCL3; assay: as above; details: both partners purified
CCL4 [6] = molecular target: T3, CCL4; assay: as above; details: both partners purified

T1 sequence (P13501 24-91): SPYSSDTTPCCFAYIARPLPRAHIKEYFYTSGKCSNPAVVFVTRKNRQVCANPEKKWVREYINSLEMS
T3 sequence (P13236 24-92): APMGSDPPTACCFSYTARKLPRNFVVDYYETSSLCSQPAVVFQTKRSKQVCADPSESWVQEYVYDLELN
T2 sequence (P10147 24-92): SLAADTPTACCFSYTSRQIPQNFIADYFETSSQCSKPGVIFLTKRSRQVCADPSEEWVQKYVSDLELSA

B1: 18V4F hybridoma antibody (murine IgG2a/lambda) (antibody, V domains shown)
VH: QVQLKESGPGLVAPSQSLSITCTVSGFSLTGYGIHWVRQPPGKGLEWLGVIWPGGGTNYNSALMSRLSISKDNSKSQVFLKMNSLQTDDTAMYYCARGPLITTEVSMDYWGQGTSVTVSS
VL: QAVVTQESALTTSPGETVTLTCRSNTGAVTTSNYANWVQEKPDHLFTGLIGGTNNRAPGVPARFSGSLIGDKAALTITGAQTEDEAIYFCALWYSNHWVFGGGTKLTVL
IC50 of inhibition of chemotaxis of CCR5-transfected Ba/F3 cells to 5 ng/mL CCL5 (blocks CCL5 with CCR5) (CCL5 [1]): > 1000 nM | IC50 of inhibition of chemotaxis of CCR5-transfected Ba/F3 cells to 5 ng/mL CCL3 (blocks CCL3 with CCR5) (CCL3 [2]): 196 nM | IC50 of inhibition of chemotaxis of CCR5-transfected Ba/F3 cells to 5 ng/mL CCL4 (blocks CCL4 with CCR5) (CCL4 [3]): 185 nM

B2: murine 18V4F Fab (Fab, V domains shown)
VH: QVQLKESGPGLVAPSQSLSITCTVSGFSLTGYGIHWVRQPPGKGLEWLGVIWPGGGTNYNSALMSRLSISKDNSKSQVFLKMNSLQTDDTAMYYCARGPLITTEVSMDYWGQGTSVTVSS
VL: QAVVTQESALTTSPGETVTLTCRSNTGAVTTSNYANWVQEKPDHLFTGLIGGTNNRAPGVPARFSGSLIGDKAALTITGAQTEDEAIYFCALWYSNHWVFGGGTKLTVL
notes: also called Mu-18V4F
Kd (CCL5 [4]): 50.3 nM | Kd (CCL3 [5]): 209 nM | Kd (CCL4 [6]): 103 nM

B3: 18V4F Fab variant d7 (Fab, V domains shown)
VH: EVQLVESGGGLVQPGGSLRLSCAASGFSLYDEGAHWVRQAPGKGLEWVGVIWPGGGTNYNSALMSRFTISKDNSKNTVYLQMNSLRAEDTAVYYCARGPLITTEVSMDYWGQGTLVTVSS
VL: SAEVTQPPSVSVSPGQTARITCSSNTGAVTTSNYANWVQQKPGQAPVGLIGGTNERPSGIPERFSGSSSGNTATLTISGAQAEDEADYYCALWYSNHWVFGGGTKLTVL
IC50 of inhibition of chemotaxis of CCR5-transfected Ba/F3 cells to 5 ng/mL CCL5 (blocks CCL5 with CCR5) (CCL5 [1]): 4.1 nM | IC50 of inhibition of chemotaxis of CCR5-transfected Ba/F3 cells to 5 ng/mL CCL3 (blocks CCL3 with CCR5) (CCL3 [2]): 18 nM | IC50 of inhibition of chemotaxis of CCR5-transfected Ba/F3 cells to 5 ng/mL CCL4 (blocks CCL4 with CCR5) (CCL4 [3]): 0.6 nM | Kd (CCL3 [5]): 35 nM | koff (CCL3 [5]): 0.0033 s⁻¹ | kon (CCL3 [5]): 110000 M⁻¹ s⁻¹ | Kd (CCL4 [6]): 7.3 nM | koff (CCL4 [6]): 0.0004 s⁻¹ | kon (CCL4 [6]): 60000 M⁻¹ s⁻¹

B4: d5d7 Fab (Fab, V domains shown)
VH: EVQLVESGGGLVQPGGSLRLSCAASGFSLYDEGAHWVRQAPGKGLEWVGVIWPGGGTNYNSALMSRFTISKDNSKNTVYLQMNSLRAEDTAVYYCARGPLITTEVSMDYWGQGTLVTVSS
VL: SAEVTQPPSVSVSPGQTARITCSSNTPLRPYRNYANWVQQKPGQAPVGLIGGTNERPSGIPERFSGSSSGNTATLTISGAQAEDEADYYCALWYSNHWVFGGGTKLTVL
notes: also called 18V4F Fab variant d5d7; not shown: His6, C-terminal, kept
IC50 of inhibition of chemotaxis of CCR5-transfected Ba/F3 cells to 5 ng/mL CCL5 (blocks CCL5 with CCR5) (CCL5 [1]): 0.9 nM | IC50 of inhibition of chemotaxis of CCR5-transfected Ba/F3 cells to 5 ng/mL CCL3 (blocks CCL3 with CCR5) (CCL3 [2]): 1 nM | IC50 of inhibition of chemotaxis of CCR5-transfected Ba/F3 cells to 5 ng/mL CCL4 (blocks CCL4 with CCR5) (CCL4 [3]): 0.2 nM | Kd (CCL3 [5]): 8.5 nM | koff (CCL3 [5]): 0.0054 s⁻¹ | kon (CCL3 [5]): 80000 M⁻¹ s⁻¹ | Kd (CCL4 [6]): 1.8 nM | koff (CCL4 [6]): 0.0036 s⁻¹ | kon (CCL4 [6]): 380000 M⁻¹ s⁻¹

B5: 18V4F Fab variant d5 (Fab, V domains shown)
VH: EVQLVESGGGLVQPGGSLRLSCAASGFSLTGYAMHWVRQAPGKGLEWVGVIWPGGGTNYNSALMSRFTISKDNSKNTVYLQMNSLRAEDTAVYYCARGPLITTEVSMDYWGQGTLVTVSS
VL: SAEVTQPPSVSVSPGQTARITCSSNTPLRPYRNYANWVQQKPGQAPVGLIGGTNERPSGIPERFSGSSSGNTATLTISGAQAEDEADYYCALWYSNHWVFGGGTKLTVL
IC50 of inhibition of chemotaxis of CCR5-transfected Ba/F3 cells to 5 ng/mL CCL5 (blocks CCL5 with CCR5) (CCL5 [1]): 105 nM | IC50 of inhibition of chemotaxis of CCR5-transfected Ba/F3 cells to 5 ng/mL CCL3 (blocks CCL3 with CCR5) (CCL3 [2]): 187 nM | IC50 of inhibition of chemotaxis of CCR5-transfected Ba/F3 cells to 5 ng/mL CCL4 (blocks CCL4 with CCR5) (CCL4 [3]): 49 nM | Kd (CCL5 [4]): 5.5 nM | koff (CCL5 [4]): 0.0014 s⁻¹ | kon (CCL5 [4]): 340000 M⁻¹ s⁻¹ | Kd (CCL3 [5]): 30.4 nM | koff (CCL3 [5]): 0.0031 s⁻¹ | kon (CCL3 [5]): 100000 M⁻¹ s⁻¹ | Kd (CCL4 [6]): 15.9 nM | koff (CCL4 [6]): 0.0012 s⁻¹ | kon (CCL4 [6]): 70000 M⁻¹ s⁻¹

B6: humanized 18V4F Fab (Fab, V domains shown)
VH: EVQLVESGGGLVQPGGSLRLSCAASGFSLTGYAMHWVRQAPGKGLEWVGVIWPGGGTNYNSALMSRFTISKDNSKNTVYLQMNSLRAEDTAVYYCARGPLITTEVSMDYWGQGTLVTVSS
VL: SAEVTQPPSVSVSPGQTARITCSSNTGAVTTSNYANWVQQKPGQAPVGLIGGTNERPSGIPERFSGSSSGNTATLTISGAQAEDEADYYCALWYSNHWVFGGGTKLTVL
notes: also called Hu-18V4F
IC50 of inhibition of chemotaxis of CCR5-transfected Ba/F3 cells to 5 ng/mL CCL5 (blocks CCL5 with CCR5) (CCL5 [1]): > 1000 nM | IC50 of inhibition of chemotaxis of CCR5-transfected Ba/F3 cells to 5 ng/mL CCL3 (blocks CCL3 with CCR5) (CCL3 [2]): > 1000 nM | IC50 of inhibition of chemotaxis of CCR5-transfected Ba/F3 cells to 5 ng/mL CCL4 (blocks CCL4 with CCR5) (CCL4 [3]): > 1000 nM | Kd (CCL5 [4]): 187 nM | Kd (CCL3 [5]): 272 nM | Kd (CCL4 [6]): 251 nM
